The target of the test is T1, S. pombe Uba1 (S. pombe) (UniProt O94609).
T1 sequence: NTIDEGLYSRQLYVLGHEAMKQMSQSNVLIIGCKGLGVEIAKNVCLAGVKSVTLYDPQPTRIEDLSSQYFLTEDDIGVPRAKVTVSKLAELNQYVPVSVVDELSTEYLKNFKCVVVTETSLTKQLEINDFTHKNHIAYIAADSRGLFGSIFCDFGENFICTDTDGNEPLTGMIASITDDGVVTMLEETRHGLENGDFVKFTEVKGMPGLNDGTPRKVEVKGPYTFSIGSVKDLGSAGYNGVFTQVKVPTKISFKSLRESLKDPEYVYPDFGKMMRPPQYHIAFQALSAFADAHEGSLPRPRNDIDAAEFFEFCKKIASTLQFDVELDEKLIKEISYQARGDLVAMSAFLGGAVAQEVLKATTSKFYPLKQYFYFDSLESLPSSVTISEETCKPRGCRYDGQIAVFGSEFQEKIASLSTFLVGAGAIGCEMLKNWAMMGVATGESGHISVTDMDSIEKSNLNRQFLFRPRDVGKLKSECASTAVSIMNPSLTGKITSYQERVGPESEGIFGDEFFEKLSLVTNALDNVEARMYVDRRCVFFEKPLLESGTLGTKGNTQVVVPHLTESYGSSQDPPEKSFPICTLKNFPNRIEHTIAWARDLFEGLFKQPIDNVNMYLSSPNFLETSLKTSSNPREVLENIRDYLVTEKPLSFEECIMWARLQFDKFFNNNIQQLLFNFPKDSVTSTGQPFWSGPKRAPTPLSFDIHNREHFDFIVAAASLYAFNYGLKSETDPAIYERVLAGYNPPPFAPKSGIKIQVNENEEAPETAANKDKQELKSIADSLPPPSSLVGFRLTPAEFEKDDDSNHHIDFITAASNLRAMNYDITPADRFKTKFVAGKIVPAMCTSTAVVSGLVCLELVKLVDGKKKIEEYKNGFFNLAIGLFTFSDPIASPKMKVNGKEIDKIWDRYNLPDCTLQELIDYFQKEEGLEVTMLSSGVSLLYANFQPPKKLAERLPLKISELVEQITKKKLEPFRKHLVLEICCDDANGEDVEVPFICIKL

B1: Ubc15 L67F (enzyme)
chain: MPSSASEQLLRKQLKEIQKNPPQGFSVGLVDDKSIFEWEVMIIGPEDTLYEGGFFHATLSFPQDYPFMPPKMKFTTEIWHPNVHPNGEVCISILHPPGDDKYGYEDAGERWLPVHSPETILISVISMLSSPNDESPANIDAAKEFRENPQEFKKRVRRLVRRSIEMI
On to B1, for which the fold decrease in E1-E2 Ub thioester transfer assay (Figure 2E) worked out at 2 fold.

For the origin of these results see paper PMC5319395.
